Key:
CqJHE [1] = target: T1, CqJHE (Culex quinquefasciatus, UniProt R4HZP1); assay: competition in JH III partition assay; type: biochemical
T1 construct: gene jhe; full-length cDNA (ORF 1746 nt) from 4th instar larvae, predicted 19-residue signal peptide removed on secretion, mature 563 residues, 63,430 Da; recombinant baculovirus AcCqJHE in High Five cells, secreted
T1 sequence (R4HZP1 20-582): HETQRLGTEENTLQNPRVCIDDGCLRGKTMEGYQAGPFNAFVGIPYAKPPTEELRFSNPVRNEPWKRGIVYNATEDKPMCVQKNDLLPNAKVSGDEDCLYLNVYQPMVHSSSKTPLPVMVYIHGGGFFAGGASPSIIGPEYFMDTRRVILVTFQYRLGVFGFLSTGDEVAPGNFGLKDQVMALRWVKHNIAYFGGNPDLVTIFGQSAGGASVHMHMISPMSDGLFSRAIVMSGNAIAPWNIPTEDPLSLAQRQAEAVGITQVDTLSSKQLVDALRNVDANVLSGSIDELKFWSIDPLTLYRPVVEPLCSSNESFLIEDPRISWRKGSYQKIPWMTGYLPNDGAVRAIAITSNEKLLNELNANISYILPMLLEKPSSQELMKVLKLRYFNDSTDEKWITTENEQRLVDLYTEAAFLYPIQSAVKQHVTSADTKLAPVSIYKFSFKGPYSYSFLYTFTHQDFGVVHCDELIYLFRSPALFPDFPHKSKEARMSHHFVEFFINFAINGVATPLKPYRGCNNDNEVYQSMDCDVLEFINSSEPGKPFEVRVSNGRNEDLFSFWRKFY

CqJHE [2] = target: T1, CqJHE; assay: JH III partition assay (radiolabelled JH III), […] min preincubation; type: biochemical
[3] = substrate: COC(=O)/C=C(\C)CC/C=C(\C)CC[C@H]1OC1(C)C; assay: JH III partition assay (radiolabelled JH III); type: biochemical, Culex quinquefasciatus; details: 50 mM sodium phosphate pH 7.4, 30°C
From the text: JH III partition assay (radiolabelled JH III) on CqJHE

[4] = substrate: CC(=O)Oc1ccc([N+](=O)[O-])cc1; assay: spectrophotometric, OD405; type: biochemical, Culex quinquefasciatus; details: 50 mM sodium phosphate pH 7.4, 30°C
From the text: spectrophotometric, OD405 on CqJHE

[5] = substrate: CC(=O)Oc1cccc2ccccc12; assay: spectrophotometric, OD450; type: biochemical, Culex quinquefasciatus; details: glycine-NaOH pH 9.0, 30°C
From the text: spectrophotometric, OD450 on CqJHE

Question: Which inhibition at 5 µM (CqJHE [1]) does the source give for `CCOC(=O)/C=C(C)/C=C/C[C@@H](C)CCCC(C)C` [hydroprene] here?
Answer: 40%

Question: With `C#CCOC(=O)/C=C(C)/C=C/CC(C)CCCC(C)C` (stereo not drawn) [kinoprene] as the molecule, how does the inhibition at 5 µM (CqJHE [1]) read?
Answer: 50%

Question: `CCCCCCCCSCC(=O)C(F)(F)F` [OTFP, 3-octylthio-1,1,1-trifluoropropan-2-one] was tested. Which IC50 (CqJHE [2]) did it give?
Answer: 0.23 ± 0.05 nM

B1: CqJHE (Culex quinquefasciatus) (protein)
chain: T1 sequence (R4HZP1 20-582)
notes: full-length cDNA (ORF 1746 nt) from 4th instar larvae, predicted 19-residue signal peptide removed on secretion, mature 563 residues, 63,430 Da; recombinant baculovirus AcCqJHE in High Five cells, secreted
Question: Which results are given for B1?
Answer: Km [3]: 0.13 ± 0.02 µM; Vmax [3]: 1.2 µmol/min/mg; kcat [3]: 1.3 s⁻¹; kcat/Km [3]: 1e+07 M⁻¹ s⁻¹; Km [4]: 340 ± 17 µM; Vmax [4]: 120 µmol/min/mg; kcat [4]: 130 s⁻¹; kcat/Km [4]: 380000 M⁻¹ s⁻¹; Km [5]: 2960 ± 420 µM; Vmax [5]: 20 µmol/min/mg; kcat [5]: 21 s⁻¹; kcat/Km [5]: 7100 M⁻¹ s⁻¹

Reference: paper PMC3235118, “Juvenile Hormone (JH) Esterase of the Mosquito Culex quinquefasciatus Is Not a Target of the JH Analog Insecticide Methoprene” (PLoS ONE, 2011)
